Positions of bridges follow the written chain, without caps; N, C: chain ends. Non-standard residues stand in square brackets, D forms with d. No end group written: not given here. *: point of attachment. Isobutyryl(2-imidazol-4-yl) = CC(C)(C(=O)*)c1c[nH]cn1; PEG = not defined here; Aib = CC(C)(N)C(=O)O
Key:
[1] = target: glucagon receptor (UniProt P47871 26-477, limits assumed); assay: cell-based or functional assay
[2] = target: GLP-1 receptor (UniProt P43220 24-463, limits assumed); assay: cell-based or functional assay

Sequence of glucagon receptor (P47871 26-477 limits assumed): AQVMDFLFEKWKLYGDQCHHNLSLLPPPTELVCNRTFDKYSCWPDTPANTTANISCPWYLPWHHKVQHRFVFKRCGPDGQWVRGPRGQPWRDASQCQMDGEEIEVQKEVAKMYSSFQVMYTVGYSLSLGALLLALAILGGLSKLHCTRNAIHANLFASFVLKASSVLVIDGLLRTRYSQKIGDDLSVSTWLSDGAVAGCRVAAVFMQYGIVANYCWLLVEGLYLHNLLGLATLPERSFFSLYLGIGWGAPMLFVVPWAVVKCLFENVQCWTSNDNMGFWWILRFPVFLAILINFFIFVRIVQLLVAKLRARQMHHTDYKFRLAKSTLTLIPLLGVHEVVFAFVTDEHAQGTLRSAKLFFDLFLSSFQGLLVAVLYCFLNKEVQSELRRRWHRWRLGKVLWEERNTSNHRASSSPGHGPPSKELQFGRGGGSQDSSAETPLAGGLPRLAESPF

| Binder | % Potency Relative to Native [1] | % Potency Relative to Native [2] |
| --- | --- | --- |
| H[Aib]QGTFTSDYSKYLDEQAAKEFIC(PEG)WLMNGGPSSGAPPPS-NH2 (reading uncertain) [Chimera AIB2, Gly29,30 Cys24 Cex (SEQ ID NO: 490), parent w/PEG] | 0.2% | 95.4% |
| H[Aib]QGTFTSDYSKYLDEQAAKEFICWLMNGGPSSGAPPPS-NH2 (N-terminus assumed; SMILES CC[C@H](C)[C@H](NC(=O)[C@H](Cc1ccccc1)NC(=O)[C@H](CCC(=O)O)NC(=O)[C@H](CCCCN)NC(=O)[C@H](C)NC(=O)[C@H](C)NC(=O)[C@H](CCC(N)=O)NC(=O)[C@H](CCC(=O)O)NC(=O)[C@H](CC(=O)O)NC(=O)[C@H](CC(C)C)NC(=O)[C@H](Cc1ccc(O)cc1)NC(=O)[C@H](CCCCN)NC(=O)[C@H](CO)NC(=O)[C@H](Cc1ccc(O)cc1)NC(=O)[C@H](CC(=O)O)NC(=O)[C@H](CO)NC(=O)[C@@H](NC(=O)[C@H](Cc1ccccc1)NC(=O)[C@@H](NC(=O)CNC(=O)[C@H](CCC(N)=O)NC(=O)C(C)(C)NC(=O)[C@@H](N)Cc1c[nH]cn1)[C@@H](C)O)[C@@H](C)O)C(=O)N[C@@H](CS)C(=O)N[C@@H](Cc1c[nH]c2ccccc12)C(=O)N[C@@H](CC(C)C)C(=O)N[C@@H](CCSC)C(=O)N[C@@H](CC(N)=O)C(=O)NCC(=O)NCC(=O)N1CCC[C@H]1C(=O)N[C@@H](CO)C(=O)N[C@@H](CO)C(=O)NCC(=O)N[C@@H](C)C(=O)N1CCC[C@H]1C(=O)N1CCC[C@H]1C(=O)N1CCC[C@H]1C(=O)N[C@@H](CO)C(N)=O) [Chimera AIB2, Gly29,30 Cys24 Cex (SEQ ID NO: 490), parent w/o PEG] | 2.5% | 458% |
| H[Aib]QGTFTSDYSKYLDEQAAKEFIAWLMNGGPSSGAPPPSC(PEG)-NH2 (lactam 16-20; reading uncertain) [Chimera AIB2, Gly29,30 Cys40 Cex Lactam (SEQ ID NO: 489), parent w/PEG] | 3.2% | 63.6% |
| [Isobutyryl(2-imidazol-4-yl)]SQGTFTSDYSKYLDEQAAKEFIC(PEG)WLMNT-NH2 (lactam 16-20; reading uncertain) [Chimera DMIA1, Cys24 Lactam (SEQ ID NO: 505), parent w/PEG] | 19.1% | 12.5% |
| H[Aib]QGTFTSDYSKYLDEQAAKEFIAWLMNC(PEG)-NH2 (reading uncertain) [Chimera AIB2, Cys29 (SEQ ID NO: 487), parent w/PEG] | 5.6% | 54.3% |
| H[Aib]QGTFTSDYSKYLDEQAAKEFICWLMNGGPSSGAPPPS-NH2 (lactam 16-20; N-terminus assumed; SMILES CC[C@H](C)[C@H](NC(=O)[C@H](Cc1ccccc1)NC(=O)[C@H](CCC(=O)O)NC(=O)[C@@H]1CCCCNC(=O)CC[C@H](NC(=O)[C@H](CC(=O)O)NC(=O)[C@H](CC(C)C)NC(=O)[C@H](Cc2ccc(O)cc2)NC(=O)[C@H](CCCCN)NC(=O)[C@H](CO)NC(=O)[C@H](Cc2ccc(O)cc2)NC(=O)[C@H](CC(=O)O)NC(=O)[C@H](CO)NC(=O)[C@@H](NC(=O)[C@H](Cc2ccccc2)NC(=O)[C@@H](NC(=O)CNC(=O)[C@H](CCC(N)=O)NC(=O)C(C)(C)NC(=O)[C@@H](N)Cc2c[nH]cn2)[C@@H](C)O)[C@@H](C)O)C(=O)N[C@@H](CCC(N)=O)C(=O)N[C@@H](C)C(=O)N[C@@H](C)C(=O)N1)C(=O)N[C@@H](CS)C(=O)N[C@@H](Cc1c[nH]c2ccccc12)C(=O)N[C@@H](CC(C)C)C(=O)N[C@@H](CCSC)C(=O)N[C@@H](CC(N)=O)C(=O)NCC(=O)NCC(=O)N1CCC[C@H]1C(=O)N[C@@H](CO)C(=O)N[C@@H](CO)C(=O)NCC(=O)N[C@@H](C)C(=O)N1CCC[C@H]1C(=O)N1CCC[C@H]1C(=O)N1CCC[C@H]1C(=O)N[C@@H](CO)C(N)=O) [Chimera AIB2, Gly29,30 Cys24 Cex Lactam (SEQ ID NO: 491), parent w/o PEG] | 25.2% | 382% |
| [Isobutyryl(2-imidazol-4-yl)]SQGTFTSDYSKYLDEQAAKEFICWLMNT-NH2 (lactam 16-20; SMILES CC[C@H](C)[C@H](NC(=O)[C@H](Cc1ccccc1)NC(=O)[C@H](CCC(=O)O)NC(=O)[C@@H]1CCCCNC(=O)CC[C@H](NC(=O)[C@H](CC(=O)O)NC(=O)[C@H](CC(C)C)NC(=O)[C@H](Cc2ccc(O)cc2)NC(=O)[C@H](CCCCN)NC(=O)[C@H](CO)NC(=O)[C@H](Cc2ccc(O)cc2)NC(=O)[C@H](CC(=O)O)NC(=O)[C@H](CO)NC(=O)[C@@H](NC(=O)[C@H](Cc2ccccc2)NC(=O)[C@@H](NC(=O)CNC(=O)[C@H](CCC(N)=O)NC(=O)[C@H](CO)NC(=O)C(C)(C)c2c[nH]cn2)[C@@H](C)O)[C@@H](C)O)C(=O)N[C@@H](CCC(N)=O)C(=O)N[C@@H](C)C(=O)N[C@@H](C)C(=O)N1)C(=O)N[C@@H](CS)C(=O)N[C@@H](Cc1c[nH]c2ccccc12)C(=O)N[C@@H](CC(C)C)C(=O)N[C@@H](CCSC)C(=O)N[C@@H](CC(N)=O)C(=O)N[C@H](C(N)=O)[C@@H](C)O) [Chimera DMIA1, Cys24 Lactam (SEQ ID NO: 505), parent w/o PEG] | 161% | 82.5% |
| H[Aib]QGTFTSDYSKYLDEQAAKEFIAWLMNGGPSSGAPPPSC-NH2 (lactam 16-20; N-terminus assumed; SMILES CC[C@H](C)[C@H](NC(=O)[C@H](Cc1ccccc1)NC(=O)[C@H](CCC(=O)O)NC(=O)[C@@H]1CCCCNC(=O)CC[C@H](NC(=O)[C@H](CC(=O)O)NC(=O)[C@H](CC(C)C)NC(=O)[C@H](Cc2ccc(O)cc2)NC(=O)[C@H](CCCCN)NC(=O)[C@H](CO)NC(=O)[C@H](Cc2ccc(O)cc2)NC(=O)[C@H](CC(=O)O)NC(=O)[C@H](CO)NC(=O)[C@@H](NC(=O)[C@H](Cc2ccccc2)NC(=O)[C@@H](NC(=O)CNC(=O)[C@H](CCC(N)=O)NC(=O)C(C)(C)NC(=O)[C@@H](N)Cc2c[nH]cn2)[C@@H](C)O)[C@@H](C)O)C(=O)N[C@@H](CCC(N)=O)C(=O)N[C@@H](C)C(=O)N[C@@H](C)C(=O)N1)C(=O)N[C@@H](C)C(=O)N[C@@H](Cc1c[nH]c2ccccc12)C(=O)N[C@@H](CC(C)C)C(=O)N[C@@H](CCSC)C(=O)N[C@@H](CC(N)=O)C(=O)NCC(=O)NCC(=O)N1CCC[C@H]1C(=O)N[C@@H](CO)C(=O)N[C@@H](CO)C(=O)NCC(=O)N[C@@H](C)C(=O)N1CCC[C@H]1C(=O)N1CCC[C@H]1C(=O)N1CCC[C@H]1C(=O)N[C@@H](CO)C(=O)N[C@@H](CS)C(N)=O) [Chimera AIB2, Gly29,30 Cys40 Cex Lactam (SEQ ID NO: 489), parent w/o PEG] | 14.2% | 170% |
| H[Aib]QGTFTSDYSKYLDEQAAKEFIC(PEG)WLMNGGPSSGAPPPS-NH2 (lactam 16-20; reading uncertain) [Chimera AIB2, Gly29,30 Cys24 Cex Lactam (SEQ ID NO: 491), parent w/PEG] | 1.4% | 96.4% |
| H[Aib]QGTFTSDYSKYLDERAAKDFVC(PEG)WLMNGGPSSGAPPPS-NH2 (not fully specified; reading uncertain) [E16, K20AIB2, A18 Gly29,30 Cys24 Cex (SEQ ID NO: 496), parent w/PEG] | 0.1% | 88.5% |
| H[Aib]QGTFTSDYSKYLDEQAAKEFIAWLMNGGPSSGAPPPSC-NH2 (N-terminus assumed; SMILES CC[C@H](C)[C@H](NC(=O)[C@H](Cc1ccccc1)NC(=O)[C@H](CCC(=O)O)NC(=O)[C@H](CCCCN)NC(=O)[C@H](C)NC(=O)[C@H](C)NC(=O)[C@H](CCC(N)=O)NC(=O)[C@H](CCC(=O)O)NC(=O)[C@H](CC(=O)O)NC(=O)[C@H](CC(C)C)NC(=O)[C@H](Cc1ccc(O)cc1)NC(=O)[C@H](CCCCN)NC(=O)[C@H](CO)NC(=O)[C@H](Cc1ccc(O)cc1)NC(=O)[C@H](CC(=O)O)NC(=O)[C@H](CO)NC(=O)[C@@H](NC(=O)[C@H](Cc1ccccc1)NC(=O)[C@@H](NC(=O)CNC(=O)[C@H](CCC(N)=O)NC(=O)C(C)(C)NC(=O)[C@@H](N)Cc1c[nH]cn1)[C@@H](C)O)[C@@H](C)O)C(=O)N[C@@H](C)C(=O)N[C@@H](Cc1c[nH]c2ccccc12)C(=O)N[C@@H](CC(C)C)C(=O)N[C@@H](CCSC)C(=O)N[C@@H](CC(N)=O)C(=O)NCC(=O)NCC(=O)N1CCC[C@H]1C(=O)N[C@@H](CO)C(=O)N[C@@H](CO)C(=O)NCC(=O)N[C@@H](C)C(=O)N1CCC[C@H]1C(=O)N1CCC[C@H]1C(=O)N1CCC[C@H]1C(=O)N[C@@H](CO)C(=O)N[C@@H](CS)C(N)=O) [Chimera AIB2, Gly29,30 Cys40 Cex (SEQ ID NO: 488), parent w/o PEG] | 2.2% | 359% |
| H[Aib]QGTFTSDYSKYLDEQAAKEFIAWLMNC-NH2 (N-terminus assumed; SMILES CC[C@H](C)[C@H](NC(=O)[C@H](Cc1ccccc1)NC(=O)[C@H](CCC(=O)O)NC(=O)[C@H](CCCCN)NC(=O)[C@H](C)NC(=O)[C@H](C)NC(=O)[C@H](CCC(N)=O)NC(=O)[C@H](CCC(=O)O)NC(=O)[C@H](CC(=O)O)NC(=O)[C@H](CC(C)C)NC(=O)[C@H](Cc1ccc(O)cc1)NC(=O)[C@H](CCCCN)NC(=O)[C@H](CO)NC(=O)[C@H](Cc1ccc(O)cc1)NC(=O)[C@H](CC(=O)O)NC(=O)[C@H](CO)NC(=O)[C@@H](NC(=O)[C@H](Cc1ccccc1)NC(=O)[C@@H](NC(=O)CNC(=O)[C@H](CCC(N)=O)NC(=O)C(C)(C)NC(=O)[C@@H](N)Cc1c[nH]cn1)[C@@H](C)O)[C@@H](C)O)C(=O)N[C@@H](C)C(=O)N[C@@H](Cc1c[nH]c2ccccc12)C(=O)N[C@@H](CC(C)C)C(=O)N[C@@H](CCSC)C(=O)N[C@@H](CC(N)=O)C(=O)N[C@@H](CS)C(N)=O) [Chimera AIB2, Cys29 (SEQ ID NO: 487), parent w/o PEG] | 20.1% | 125% |
| H[Aib]QGTFTSDYSKYLDEQAAKEFIAWLMNGGPSSGAPPPSC(PEG)-NH2 (reading uncertain) [Chimera AIB2, Gly29,30 Cys40 Cex (SEQ ID NO: 488), parent w/PEG] | 0.3% | 68.8% |
| H[Aib]QGTFTSDYSKYLDERAAKDFVC(PEG)WLMNT-NH2 (reading uncertain) [E16, K20AIB2, A18 Cys24 (SEQ ID NO: 492), parent w/PEG] | 1.1% | 73.5% |
